Results on 40 sequences are retold here after the nanobody polyreactivity screen of Harvey et al. (2022).

This series is described as follows: yeast display, Sf9 membrane polyspecificity reagent, FACS + sequencing; frameworks hold sequencing errors. An outline of the steps: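 Nanobodies came from a synthetic yeast display library in Saccharomyces cerevisiae BJ5465, induced with galactose for 36–48 hours and stained for 1 hour at 4 °C with 10% biotinylated, detergent-solubilized Sf9 membrane reagent. Cells were enriched on streptavidin microbeads and then FACS-sorted, with low and high (top ~1%) gates set on anti-HA fluorescence for expression and streptavidin fluorescence for reagent binding. Each polyreactivity label reflects the gate a clone came from. Genes were amplified by colony PCR, sequenced by MiSeq 2 × 250 and filtered by CDR length.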
Turning to “QVQLVESGGGLVQAGGSLRLSCAASGSIFIYNAMGWYRQAPGKERELVAAISSSGGSTYYADSVKGRFTISRDNAKNTVYLQMNSLKPEDTAVYYCAARTYYVRVLGGRPGMDYWGQGTQVTVSS”, the “polyreactivity (PSR sort gate)” value is recorded as “low polyreactivity”. On to “QVQLVESGGGLVQAGGSLRLSCAASGSIFIYNAMGWYRQAPGKERELVAAISSSGGSTYYADSVKGRITISRDNAKNTVYLQMNSLKPEPTAVYYCAARTYYVRGLGGRPGMDYCGQGTQVTVSS”, for which the “polyreactivity (PSR sort gate)” value is given as “low polyreactivity”. For the sequence “QVQLVESGGGLVQAGGSLRLSCAASGSIFIYNAMGWYRQGPGKERELVAAISSSGGSTYYADSVKGRFTISRDNAKNTVYLQMNSLNPEDTAVYYCAARTYYVRGLGGRPGMDYWGPGTQVTVSS”, the “polyreactivity (PSR sort gate)” value was “low polyreactivity”. Consider “QVQLVESGGGLVQAGGSLRLSCAASGSIFIYYAMGWYRQAPGKERELVASISSSGSRTYYADSVKGRFTISRDNAKNTVYLQMNSLKPEETAVYYCAARYAIPRNYPQYNYWGQGTQVTVSS”, for which the “polyreactivity (PSR sort gate)” value was “high polyreactivity”. As for “QVQLVESGGGLVQAGGSLRLSCAASGSIFIYYAMGWYRQAPGKERELVATISSDDRTNYTDSVKGRFTISRDNAKNTVYLQMNSLKPEDTAVYYCAADRYWAGRDGPEYDYWGQGTQVTVSS”, the “polyreactivity (PSR sort gate)” value is given as “low polyreactivity”.

Turning to “QVQLVESGGGLVQAGGSLRLSCAASGSIFIYYAMGWYRQAPGKQRELVAGINFNGGSTYYADSVKGRFTISRDNAMYTVYVQMNSLKPEDTAVYYCAADELWWTYWDFVTNWYQRDYWGQGTQVTVSS”, the “polyreactivity (PSR sort gate)” value was “low polyreactivity”. The same measure for “QVQLVESGGGLVQAGGSLRLSCAASGSIFIYYTMGWYRQAPGKEREFVASISWRGGRTYYADSVKGRFTISRDNAKNTVYLQMNSLKPEDTAVYYCAAKSRAYSYRMDYWGQGTQVTVSS”: “high polyreactivity”. The same measure for “QVQLVESGGGLVQAGGSLRLSCAASGSIFKGYALGWYRQAPGKERELVAAITYSGGGTYYADSVKGRFTISRDNAKNTVYLQMNSLKPEDTAVYYCNADRYYPDDLSDGVGTYDYWGQGTQVTVSS”: “low polyreactivity”. The same measure for “QVQLVESGGGLVQAGGSLRLSCAASGSIFKGYAMGWYRQAPGKERELVAAITGGGGSTYYADSVKGRFTISRDNAKNTVYLQMNSLKPEDTAVYYCAADARVKRYYFRKSGYWGQGTQVTVSS”: “high polyreactivity”; for “QVQLVESGGGLVQAGGSLRLSCAASGSIFKINAMGCYTPAPGKERELVATITRSTGTTYYADSVKGRFTNSRDTAKNSVYLQMNSLKPEDTAVYYCATDGDSNKLDYWGQGTQVTVSS”: “low polyreactivity”; for “QVQLVESGGGLVQAGGSLRLSCAASGSIFKIYAMGWSRQAPGKERELVAAISRSVGSTYADSVKGRFTISRDNAKNTVYLQMNSLKPEDTAVYYCNARYKSRLYPRYDYWGQGTQVTVSS”: “high polyreactivity”. “QVQLVESGGGLVQAGGSLRLSCAASGSIFKIYAMGWYRQAPGKERELVAAISRRGSSTSYADSVKGRFTISRDNAKNTVYLQMNSLKPEDTAVYYCAARYISNPMDYWGQGTQVTVSS”: the “polyreactivity (PSR sort gate)” value is reported as “high polyreactivity”. In the case of “QVQLVESGGGLVQAGGSLRLSCAASGSIFKIYAMGWYRQAPGKERELVASITGSGGSTYYADSVKGRFTISRDNAKNTVYLQMNSLKPEDTAVYYCAADVVRSNFYGTFLYDYDYWGQGTQVTVSS” it was “low polyreactivity”. In the case of “QVQLVESGGGLVQAGGSLRLSCAASGSIFKIYAMGWYRQAPGKERELVASITGSGGSTYYADSVKGRFTISRDNAKNTVYLQMNSLKPEDTAVYYCIADGPLDRYEYWGQGTQVTVSS” it was “low polyreactivity”. In the case of “QVQLVESGGGLVQAGGSLRLSCAASGSIFKKYAMGWYRQAPGKERELVAAITRGTYYADSVKGRFTISRDNAKNTVYLQMNSVKPVDTAVYYCNREYWGRGYYRVRGEYVYWGQGTQVTVSS” it was “low polyreactivity”.

Consider “QVQLVESGGGLVQAGGSLRLSCAASGSIFKPYAMAWYRQAPGKERELVAAINRGGTSTYYADSVKGRFTISRDNAKNTVYLQMNSLKPEDTAVYYCAKTYTEYSVTRSGARMDYWGQGAQVTVSS”, for which the “polyreactivity (PSR sort gate)” value is “low polyreactivity”. “QVQLVESGGGLVQAGGSLRLSCAASGSIFKPYAMGWYRQAPGKERELVAAINRGGTSTYYADSVKGRFTISRDNAKNTVYFQMNSLKPEDTAVYYCAAPNRYSVPMYYWGQGTQVTVSS”: the “polyreactivity (PSR sort gate)” value is reported as “low polyreactivity”.

“QVQLVESGGGLVQAGGSLRLSCAASGSIFKPYAMGWYRQAPGKERELVAAISYSGGSTYYADSVKGRFTISRDNAKNSVYLQMNSLKPEDTAVYYCAKRSTSRGYDYWGQGTQVTVSS”: the “polyreactivity (PSR sort gate)” value is “high polyreactivity”. Take “QVQLVESGGGLVQAGGSLRLSCAASGSIFKQNDMGWYRHAPGKERELVAAITYTGGSTYYADSVKGRFTISRDNAKNTVYLQMNSLKPEDTAVYYCAARITSPRARSRGFYYWGQGTQVTVSS”: the “polyreactivity (PSR sort gate)” value is listed as “high polyreactivity”. As to “QVQLVESGGGLVQAGGSLRLSCAASGSIFKQYDMGWYRQAPGKERDLVAAITASDGSTYYADSVKGRFTISRDNAMNTVYLQMNSLKPEDTAVYFCAADGGVAWGYGYCGQGTQVTVSS”, the “polyreactivity (PSR sort gate)” value is listed as “low polyreactivity”. In the case of “QVQLVESGGGLVQAGGSLRLSCAASGSIFKQYVMGWYRQAPGKERELVAAISRGGNTYYADSVKGRFTISRDNAKNTVYLQMNSLKPEDTAVYYCAAVYGGRAVPYYSWGQGTQVTVSS” it was “high polyreactivity”; in that of “QVQLVESGGGLVQAGGSLRLSCAASGSIFKRNAMGWYRQAPGKERELVASISWSGTRTYYADSVKGRFTISRDKAKNTVYFQMNSLKPEDTAVYYCARRIYGGHPCQSTQGDFYYWGQGTQVTVSS”, “high polyreactivity”. The same measure for “QVQLVESGGGLVQAGGSLRLSCAASGSIFKRYAMGWYRQAPGKERELVAAISWSGGNTYYADSVKGRFTISRDNAKNTVYLQMNSLKPEDTAVYYCAALHRVGYSEYGYWGQGTQVTVSS”: “high polyreactivity”. In the case of “QVQLVESGGGLVQAGGSLRLSCAASGSIFKRYAMGWYRQAPGKERELVAGITSSGGSTYYADSVKGRFTISPDNAKNTVYLQMNSLKPEDTAVYYCAAPYSSYKVRPYDYWGQGTQVTVSS” it was “low polyreactivity”.

As to “QVQLVESGGGLVQAGGSLRLSCAASGSIFKSYAMGWYRHAPWKERELVASISSRGSSTNYADSVKGRFTISRDNAKITVYLQMNSLKPEDTEGYYCAAEVYRGKYWSTYRGGDYWGQGTQVTVSS”, the “polyreactivity (PSR sort gate)” value was “high polyreactivity”.

Regarding “QVQLVESGGGLVQAGGSLRLSCAASGSIFKSYAMGWYRQPPGKERELVAAISWSGTSTYYADSVKGRFTISRDNAKNTVYLLMNSLKPEDTAVYYCNAVSVSSKRSDYWGQGTQVTVSS”, the “polyreactivity (PSR sort gate)” value is “low polyreactivity”. Regarding “QVQLVESGGGLVQAGGSLRLSCAASGSIFKTNAMGWYRQAPGKERELVAGISNGGSTNYADSVKGRFTISRDNAKNTVYLQMNSLKPEDTAVYYCATDFAVTKMEYWGQGTQVTVSS”, the “polyreactivity (PSR sort gate)” value is “low polyreactivity”. “QVQLVESGGGLVQAGGSLRLSCAASGSIFKTYAMGWYRQAPGKERELVAAISSGGSTYYADSVKGRFTISRDNAKNTVYLELNSLKPEDTAVYYCAADPWGAFVSFASYYYWGQGTQVTVSS”: the “polyreactivity (PSR sort gate)” value is reported as “low polyreactivity”.

Turning to “QVQLVESGGGLVQAGGSLRLSCAASGSIFKYNAMGWYRQAPGKERELVAAITIGGRTYYADSVKGRFTISRDNAKNTVYLQMNSLKPEDTAVYYCAGVVRALTIKYGYWGQGTQVTVSS”, the “polyreactivity (PSR sort gate)” value is reported as “high polyreactivity”. The same measure for “QVQLVESGGGLVQAGGSLRLSCAASGSIFKYNAMGWYRQAPGKERELVAAITNGGSTYADSVKGRFTISRDNAKNTVYLQMNSLKPEDTAVYYCNFYGQDGVNVTYDYWGQGTQVTVSS”: “low polyreactivity”; for “QVQLVESGGGLVQAGGSLRLSCAASGSIFKYNTMGWYRQAPGKERELVAAIRYSGGRTYYADSVKGRFTISRDYAKNTVYLQMNSLKPEDTAVYYCAAGSIQYRPTYTGDYWGQGTQVTVSS”: “high polyreactivity”; for “QVQLVESGGGLVQAGGSLRLSCAASGSIFKYYAKGWYRQAPGKERELVAAITIGGNTNYADSVKGRFTISRDNAKNTVYLQMNSLKPEDTAVYYCATGGYYSAIVYGGYDYWGQGTQVTVSS”: “low polyreactivity”. In the case of “QVQLVESGGGLVQAGGSLRLSCAASGSIFKYYAMGSSRQAPGKERELVAAISTGGTTNYADSVKGRFTISRDNAKNTVYLQMNSLKPEDTAVYYCNRDYLVRSRYKYYYWGQGTQVTVSS” it was “low polyreactivity”. In the case of “QVQLVESGGGLVQAGGSLRLSCAASGSIFKYYAMGWYRQAPGKERELVAAISTGGTTNYADYVKGRFTISRDNAKNTVYLQMNSLKPEDTAVYYCNRDYLVRSRYKYYYWGQGTQVTVSS” it was “low polyreactivity”; in that of “QVQLVESGGGLVQAGGSLRLSCAASGSIFKYYTMGWSRQAPGKERELVAAINSSGGSTYYADSVKGRFTISRYNAKNTVYLQMYSLKPEDTAVYYCIAVTSRRWRYELDYLGQGTQVTVSS”, “high polyreactivity”; in that of “QVQLVESGGGLVQAGGSLRLSCAASGSIFKYYTMGWYRQAPGKERELVAAITYTGGRTYYADSVKGRFTISRDNAKNTVYLQMNSPKPEDTAVYYCAKDGPATVRRGYDYWGQGTQVTVSS”, “high polyreactivity”. In the case of “QVQLVESGGGLVQAGGSLRLSCAASGSIFLAYAMGCYRQATAKEREFVAANSFSDGSTYYADSVKGRFTISRDNAKNTVYLQMNSLKPEDTAVYYCNKGASPDDYDYWGQGTQVTESS”, the “polyreactivity (PSR sort gate)” value is “low polyreactivity”. In the case of “QVQLVESGGGLVQAGGSLRLSCAASGSIFLAYDMGWYRQAPGKERELVAGITSGGTTYYADSVKGRFTISRDNAKNTVYLQMNSLKPEDTAVYYCAVEPVFIVSEVLFDYWGQGTQVTVSS” it was “low polyreactivity”; in that of “QVQLVESGGGLVQAGGSLRLSCAASGSIFLAYLKGWYRQAPGKERELVAAISYRGVSTYYADSVKGRFTISRDNAKNTVYLQMTRLNPEDTAVYYFAAEHLWGAVFLYVRSTGLDYWGQGTQVTVSS”, “low polyreactivity”. The same measure for “QVQLVESGGGLVQAGGSLRLSCAASGSIFLDYAMGWYRQAPGKERELVAANTSDGSTYYADSVKGRFTISRDKAKNTVYLQMNSLKPEDTAVYYCAVQDTSYDVQYSYGYWGQGTHVTVSS”: “low polyreactivity”.
